# From patent publication US20190127480A1 (Regeneron, published 2019)
# Substitutions are numbered along the chain they refer to.
# B1: H2M2690N (antibody, mouse IgG2, V domains shown)
# VH: EVQLVESGGGLVQPGRSLRLSCAASGFTFDDYTMHWVRQAPGKGLEWVSGISWNSGSIGYADSVKGRFTISRDNAKKSLYLQMNSLRAEDTALYYCAKDNSGYGHYYYGMDVWGQGTTVTVAS
# VL: EIVMTQSPATLSVSPGERATLSCRASQSVSSNLAWYQQKPGQAPRLLIYGASTRATGIPARFSGSGSGTEFTLTISSLQSEDFAVYYCQHYINWPLTFGGGTKVEIK
# notes: H2M: mouse IgG2 Fc, human variable regions; divalent
# B2: H1M2712N (antibody, mouse IgG1, V domains shown)
# VH: B1 VH with R16G, S25T, Y32F, A61V, K77N, H105Y, A122S
# VL: B1 VL with Q27H, S31R, L33S, V85I, H90Q, I92N
# notes: H1M: mouse IgG1 Fc; divalent
# B3: H2M2691N (antibody, mouse IgG2, V domains shown)
# VH: B1 VH
# VL: B1 VL
# notes: as for B1
# B4: H1M2692N (antibody, mouse IgG1, V domains shown)
# VH: EVQLVESGGGLVQPGGSLRLSCAASGFSFDDYTMHWVRQPPGKGLEWVSGISWNSGSIGYADSVKGRFTISRDNAKNSLYLQMNSLRAGDTALYYCAKDNSGYGYYYYYGMDVWGQGTTVTVSS
# VL: B1 VL with H90Q, I92Y
# notes: H1M: mouse IgG1 Fc, human variable regions; divalent
# B5: H2M2708N (antibody, mouse IgG2, V domains shown)
# VH: QVQLVESGGGVVQPGRSLRLSCAASGFTFRSFGMHWVRQAPGRGLEWVAMIYFDGKNKYYADSVRGRFTISRDNSKNTLYLEMSSLRAEDTAVYFCARGPGYNWLDPWGQGTLVTVSS
# VL: B1 VL with A19V, V29I, S31R, I58V, Y86F, Y87H, H90Q, I92N, W94R, K103E
# notes: as for B1
# B6: H2M2707N (antibody, mouse IgG2, V domains shown)
# VH: B5 VH with A23I, F32Y, R43K, F53Y, K56N, E82Q, S84N, E89D
# VL: B1 VL with H90Q, I92N, W94R
# notes: as for B1
# B7: H2M2774N (antibody, mouse IgG2, V domains shown)
# VH: B5 VH with A23V, F32Y, R43K, E46Q, F53Y, E82Q, S84N, V93M
# VL: B1 VL with S28R, V29I, I58S, F83V, H90Q, Y91H, I92N
# notes: as for B1
# B8: H2M2711N (antibody, V domains shown)
# VH: B5 VH
# VL: B1 VL with S31R, I58V, Y86F, Y87H, H90Q, I92N, W94R, K103E
# notes: as for B1
# B9: H2M2706N (antibody, mouse IgG2, V domains shown)
# VH: B5 VH with F32Y, G33A, R43K, I51V, F53Y, K56N, K58Q, E82Q, S84N, E89D
# VL: B1 VL with S31R, E70D, H90Q, I92N, E105V
# notes: as for B1
# B10: H2M2885N (antibody, mouse IgG2, V domains shown)
# VH: B5 VH
# VL: EIVMTQSPATLSVSPGERVILSCRASQSISRNLAWYQQKPGQAPRLLIYGATTRATGVPARFSGSGSGTEFTLTISSLQSEDFAVFYCQQYNNRPLTFGGGTEVEIK
# notes: as for B1
# B11: H2M2710N (antibody, V domains shown)
# VH: B5 VH
# VL: B10 VL with V19A, I20T, I29V, T52S, Y87H
# notes: as for B1
# B12: H2M2886N (antibody, mouse IgG2, V domains shown)
# VH: B5 VH
# VL: B10 VL
# notes: as for B1
# B13: H2M2775N (antibody, mouse IgG2, V domains shown)
# VH: B5 VH
# VL: B10 VL
# notes: as for B1
# B14: H2M2789N (antibody, mouse IgG2, V domains shown)
# VH: QVTLKESGPALVKPTQTLTLTCTFSGFSLSTSGMCVSWIRQPPGKALEWLARIDWDDDKYYSTSLKTRLTISKDTSKNQVVLTMTNMDPVDTATYYCARMDIVGARGGWFDPWGQGTLVTVSS
# VL: DIQMTQSPSSLSASVGDRVTITCRASQGISNYLAWFQQKPGKAPKSLIYAASSLQSGVPSKFSGSGSGTDFTLTISSLQPEDFATYYCQQYNSYPLTFGGGTKVEIK
# B15: H2M3548N (antibody, mouse IgG2, V domains shown)
# VH: EVQLVESGGGLVQPGRSLRLSCAASGFKFADYAMHWVRQAPGKGLEWVSEISWNSGSIGYVDSVKGRFTISRDNAKNSLYLQMNSLRAEDTALYYCVKDKSGYGHYYIGMDVWGQGTTVIVSS
# VL: not shown
# notes: as for B1
# B16: H1M3549N (antibody, mouse IgG1, V domains shown)
# VH: EVQLVESGGGLVQPGRSLRLSCVASGFPFADYTMHWVRQAPGKGLEWVSDISWNSGSIGYADSVKGRFTISRDNAKNSLYLQMNSLRTEDTALYYCAKDMSGYAHYFYYGMDVWGQGTTVTVSS
# VL: not shown
# notes: as for B4
# B17: H1M3542N (antibody, mouse IgG1, V domains shown)
# VH: B16 VH with I58K, L93F
# VL: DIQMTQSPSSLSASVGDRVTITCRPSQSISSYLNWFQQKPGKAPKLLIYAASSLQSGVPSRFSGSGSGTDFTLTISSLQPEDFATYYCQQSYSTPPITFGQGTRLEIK
# notes: as for B4
# B18: H1M3613N (antibody, mouse IgG1, V domains shown)
# VH: B16 VH with R19K, V23T, P28T, A40G, I58K, F107Y, G110A, M111L
# VL: not shown
# notes: as for B4
# B19: H2M2778N (antibody, mouse IgG2, V domains shown)
# VH: B4 VH with G16R, S28T, T33S, P40A, G56R, G59D, G89E, A97V, Y105R, T121S
# VL: B1 VL with E1K, S31G, G57S, Y87F, I92Y, K107R
# notes: as for B1
# B20: H1H5799P (antibody, human IgG1, V domains shown)
# VH: QVQLVQSGAEVKKPGASVKVSCKASGYTFIGYYMHWVRQAPGQGLEWMGWINPKSGGTNYAQKFQGRVTMTGDTSISTAYMELSRLRSDDTAVFYCARMGDGAMFDYWGQGTLVTVSS
# VL: DIQMTQSPSSLSASVGDRVTITCRASQRISSYLNWYQQKAGKAPKVLIYTASSLQSGVPSRFSGSGSGTDFTLTISSLQPEDFATYYCQQSYSTPLTFGGGTKVEIK
# B21: H1M3549N (antibody, mouse IgG1, V domains shown)
# VH: B16 VH
# VL: not shown
# B22: H1M3613N (antibody, mouse IgG1, V domains shown)
# VH: B16 VH with R19K, V23T, P28T, A40G, I58K, F107Y, G110A, M111L
# VL: not shown
# B23: H2M3548N (antibody, mouse IgG2, V domains shown)
# VH: B15 VH
# VL: not shown
# Target: T1, human CD3 expressed on cells (Jurkat cells, a CD3+ human T-cell line; human PBMC T cells) (human, UniProt P07766 23-207; P04234 22-171)
# Assay: cell-based or functional assay
# T1 sequence (P07766 23-207 limits assumed, chain 1 of 2): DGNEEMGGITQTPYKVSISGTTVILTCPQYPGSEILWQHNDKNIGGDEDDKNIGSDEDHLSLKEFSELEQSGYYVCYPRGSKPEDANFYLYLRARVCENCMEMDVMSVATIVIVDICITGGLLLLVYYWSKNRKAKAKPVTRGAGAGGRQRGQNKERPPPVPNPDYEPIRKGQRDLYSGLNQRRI
# T1 sequence (P04234 22-171 limits assumed, chain 2 of 2): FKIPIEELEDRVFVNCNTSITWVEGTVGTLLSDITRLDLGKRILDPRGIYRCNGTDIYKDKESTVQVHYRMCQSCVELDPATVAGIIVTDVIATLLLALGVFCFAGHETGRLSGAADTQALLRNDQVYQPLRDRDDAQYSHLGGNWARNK
row,EC50 [M] hPBMC Proliferation [M],Binder
1,5.37e-12,B1
2,1.28e-10,B2
3,3.43e-11,B3
4,1.42e-10,B4
5,2.69e-08,B5
6,1.92e-12,B6
7,4.92e-10,B7
8,6.48e-10,B8
9,3.86e-12,B9
10,2.49e-12,B10
11,2.11e-10,B11
12,2.69e-12,B12
13,1.09e-09,B13
14,2.85e-08,B14
15,1.89e-12,B15

# Target: T1, human CD3 expressed on cells (Jurkat …)
# Assay: FACS on Jurkat cells
# Protocol: FACS data was acquired using the following protocol: Cells at 2×10⁵ per well were incubated with serially diluted antibodies for 30 min on ice. Post incubation, cells were washed and secondary antibody was added and incubated for an additional 30 minutes. After incubation, cells were washed, re-suspended in cold PBS containing 1% BSA and analyzed by flow cytometry with viable Jurkat cells gated by side and forward scatters. The EC₅₀s for cell binding titration were determined using Prism software with values calculated using a 4-parameter non-linear regression analysis.
row,EC50 [nM],Binder
1,2.3,B16
2,2.01,B17
3,10.3,B18
4,4.37,B1
5,21.9,B2
6,3.62,B19
7,6.77,B3
8,5.99,B4
9,0.658,B5
10,124,B6
11,0.352,B7
12,1.16,B8
13,2.37,B9
14,2.09,B10
15,0.71,B11
16,3.97,B12
17,1.32,B13
18,1.1,B15

# Target: T2, human CD3 expressed on cells (Jurkat cells; human T-cells of PBMC) (human, UniProt P09693 23-182; P20963 22-164)
# Assay: cell-based or functional assay
# T2 sequence (chain, as listed by the source, chain 1 of 4): as the sequence (P07766 23-207 limits assumed, chain 1 of 2) above
# T2 sequence (chain, as listed by the source, chain 2 of 4): as the sequence (P04234 22-171 limits assumed, chain 2 of 2) above
# T2 sequence (P09693 23-182, chain 3 of 4): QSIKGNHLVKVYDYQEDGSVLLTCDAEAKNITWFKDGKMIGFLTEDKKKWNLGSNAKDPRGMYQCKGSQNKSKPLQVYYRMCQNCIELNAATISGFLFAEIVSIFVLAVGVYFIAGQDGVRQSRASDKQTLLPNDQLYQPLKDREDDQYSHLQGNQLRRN
# T2 sequence (P20963 22-164, chain 4 of 4): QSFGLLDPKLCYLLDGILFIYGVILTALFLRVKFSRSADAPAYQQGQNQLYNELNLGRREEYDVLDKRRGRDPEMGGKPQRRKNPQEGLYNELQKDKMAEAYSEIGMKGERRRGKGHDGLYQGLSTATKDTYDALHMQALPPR
row,EC50 [M] hPBMC Proliferation [M],Binder
1,1.63e-13,B20

# Target: T2, human CD3 expressed on cells (Jurkat …)
# Assay: cell-based or functional assay
# Remark: another data set of the same source
row,Binder,U937 Cytotoxicity Human T-cells [pM]
1,B21,107
2,B22,866
3,B23,5.5

# Target: T3, Soluble heterodimeric CD3 protein (hCD3-epsilon/hCD3-delta) with either a human Fc tag (hFcΔAdp/hFc) or a … (human, UniProt P07766 23-126; P04234 22-105)
# T3 construct: also called hCD3ε/δ; not shown: Fc tag: human (hFcΔAdp/hFc)
# Assay: SPR Biacore 25C antigen-capture
# Summary of the method: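 Rate constants fitted to a 1:1 model, giving KD as kd/ka and dissociative half-life as ln2/(60·kd) minutes. Antibodies flowed over CD3ε/δ heterodimer captured on anti-human or anti-mouse Fc surfaces, run on a Biacore T200 at 25 °C.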
# T3 sequence (P07766 23-126 limits assumed, stated change not applied, chain 1 of 2): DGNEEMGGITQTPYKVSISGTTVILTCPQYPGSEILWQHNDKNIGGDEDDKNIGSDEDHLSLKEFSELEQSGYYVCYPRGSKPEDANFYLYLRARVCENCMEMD
# T3 sequence (P04234 22-105 limits assumed, stated change not applied, chain 2 of 2): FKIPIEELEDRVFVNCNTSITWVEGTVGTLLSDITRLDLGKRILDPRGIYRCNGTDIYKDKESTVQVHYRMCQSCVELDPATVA
Kd [nM],T½ [min],koff [s⁻¹],kon [M⁻¹ s⁻¹],Binder
1.03,40,0.000289,281000,B16
0.457,58,0.0002,437000,B17
0.435,120,9.6e-05,220000,B18
0.0799,1820,6.35e-06,75100,B1
0.295,846,1.37e-05,47500,B2
0.0468,1760,6.57e-06,150000,B19
0.254,1160,9.98e-06,39400,B3
0.238,1170,9.9e-06,41900,B4
0.131,51,0.000227,1.73e+06,B5
0.715,41,0.000285,399000,B6
0.135,34,0.000336,2.49e+06,B7
0.151,48,0.00024,1.59e+06,B8
0.544,38,0.000306,563000,B9
0.111,76,0.000152,1.37e+06,B10
0.153,48,0.000243,1.59e+06,B11
0.0956,85,0.000136,1.42e+06,B12
0.138,53,0.000216,1.56e+06,B13
